Measurements published in PMC4775227, “Molecular mechanism of thermosensory function of human heat shock transcription factor Hsf1” (eLife, 2016).
Substitutions are numbered along the chain they refer to. Names may count otherwise. “And” between values parts separate entries of the source, which are not always exact repeats. Equal entries are not always repeated. One block for each binder: values may come before it.

What was measured:
[1] = target: T1, human heat shock transcription factor Hsf1, wild type (human), Q00613; test: SEC; S200 HiLoad 16/60 in Hsf1-buffer (25 mM Hepes pH 7.4, 150 mM NaCl, 10% glycerol, 2 mM DTT), 4°C, after Ni-IDA and cleavage of the SUMO tag; conditions: remark: other sources report otherwise
T1 chain: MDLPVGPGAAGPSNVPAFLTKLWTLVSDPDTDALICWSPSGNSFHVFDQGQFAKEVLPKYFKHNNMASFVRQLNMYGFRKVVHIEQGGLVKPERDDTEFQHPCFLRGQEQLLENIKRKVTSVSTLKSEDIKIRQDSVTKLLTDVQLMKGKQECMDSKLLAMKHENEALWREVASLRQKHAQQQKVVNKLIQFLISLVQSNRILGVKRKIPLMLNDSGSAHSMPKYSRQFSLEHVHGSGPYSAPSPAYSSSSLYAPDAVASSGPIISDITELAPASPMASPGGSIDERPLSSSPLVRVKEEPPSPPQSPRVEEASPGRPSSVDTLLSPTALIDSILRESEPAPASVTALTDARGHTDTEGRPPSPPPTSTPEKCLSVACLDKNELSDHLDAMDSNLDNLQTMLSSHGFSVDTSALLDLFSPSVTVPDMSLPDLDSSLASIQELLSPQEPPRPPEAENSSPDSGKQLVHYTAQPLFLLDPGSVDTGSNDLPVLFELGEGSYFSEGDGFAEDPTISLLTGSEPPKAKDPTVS

[2] = target: T1, human heat shock transcription factor …; test: HDX-MS; kinetics: 5 µM Hsf1 heat-shocked 10-1000 s at 35, 37, 39 or 42°C, then 30 s in D2O at 20°C; single exponential fits of the low-exchanging fraction; conditions: remark: other sources report otherwise
[3] = target: T1, human heat shock transcription factor …; test: HDX-MS + fluorescence polarisation; monomer to dimer; fit of the quadratic solution of the law of mass action to Tm values (10 min incubation, wild type) against Hsf1 concentration, assuming the fraction of dimer determines Tm; rough estimate; conditions: remark: other sources report otherwise
[4] = target: T1, human heat shock transcription factor …; test: native gel or EMSA; blue native polyacrylamide gel; monomeric Hsf1 after heat shock (42°C; pre-incubation at different temperatures for 10 min), Hsf1-buffer; also detected by immunoblot with Hsf1 antiserum; conditions: remark: other sources report otherwise
[5] = target: the molecule itself; test: HDX-MS; 5 µM Hsf1 or mutant in Hsf1-buffer pre-incubated 10 or 30 min at 20-42°C, diluted 1:20 into D2O buffer, 30 s at 20°C, quenched, online pepsin, LC-MS

- stoichiometry N [1]: 2 and 3
- rate of increase of the low-exchanging HR-A/B population (trimerization) at 35°C [2]: 0.0018 s⁻¹
- rate of increase of the low-exchanging HR-A/B population (trimerization) at 37°C [2]: 0.0033 s⁻¹
- rate of increase of the low-exchanging HR-A/B population (trimerization) at 39°C [2]: 0.0094 s⁻¹
- rate of increase of the low-exchanging HR-A/B population (trimerization) at 42°C [2]: 0.016 s⁻¹
- Kd [3]: 330 nM
- stoichiometry N [4]: 3
B1: human heat shock transcription factor Hsf1, wild type, Q00613 1-529 (natural protein)
chain: T1 chain

B2: human Hsf1-S303D (natural protein, UniProt Q00613 1-529, looked up)
chain: T1 chain with S303D
notes: heat shock transcription factor 1 (Hsf1), human, phosphomimetic variant S303D; Probably made and purified as the wild type (6xHis-SUMO fusion in E. coli, tag cleaved); also called phosphomimetic Hsf1 variant
- binding result [5]: binds

B3: human Hsf1-S307D (natural protein, UniProt Q00613 1-529, looked up)
chain: T1 chain with S307D
notes: heat shock transcription factor 1 (Hsf1), human, phosphomimetic variant S307D; Probably made and purified as the wild type (6xHis-SUMO fusion in E. coli, tag cleaved); also called phosphomimetic Hsf1 variant
- binding result [5]: binds
